# Measured values as given in patent US20260001914A1, “MACROCYCLIC PEPTIDES TARGETING KRAS” (Merck Sharp & Dohme LLC, priority 2022, published 2026).
# Assays:
# [1] = biological target: KRAS-G12D in AsPC-1 cells (UniProt P01116); test: cell-based or functional assay
# [2] = biological target: Biotin-labeled KRAS-G12D protein (UniProt P01116-2 1-169, limits assumed, biotin label (site not stated); loaded with BODIPY-GDP); test: cell-based or functional assay
"AlphaScreen @18 h, EC50 [1] [µM]",SOS assay EC50 [2] [µM],Substance
6.12,0.435,cyclo(FLac-NMeDabN3-4CF33Pal-Nle-Phe2F-Nle-NMe3Pal-amBCP) (peptide)
3.48,5.59,cyclo(FLac-NMeDabN3-3Pal-Nle-F2FLac-Nle-NMe3Pal-amBCP) (peptide)
11.8,0.0187,cyclo(FLac-NMeA-4F3Pal-Nle-Phe2F-Nle-NMe3Pal-amBCP) (peptide)
> 50.9,0.236,cyclo(FLac-NMeA-PyrimAla-rF2Cba-Phe2F-Nle-NMe3Pal-amBCP) isomer 1 (peptide)
> 50.9,1.16,cyclo(FLac-NMeNvalmid-PyrimAla-Nle-F2FLac-Nle-NMe3Pal-amBCP) (peptide)
0.886,0.0379,cyclo(FLac-NMeA-3Pal-cBuA-TyrOMe-Ahp-NMeF-amBCP) (peptide)
41.2,0.225,cyclo(FLac-NMeA-PyrimAla-cPrA-Phe2F-Hag-NMeHag-amBCP) (peptide)
> 50.9,0.0108,cyclo(FLac-R-3Pal-cBuA-TyrOMe-Ahp-NMeF-amBCP) (peptide)
0.439,0.011,cyclo(FLac-NMeA-PyrimAla-Nle-Phe2F-Nle-NMeYOMe-amBCP) (peptide)
1.44,0.0503,cyclo(FLac-NMeA-3Pal-Nle-Phe2F-Nle-NMeF-amBCP) (peptide)
> 50.9,0.997,cyclo(FLac-NMeA-4F3Pal-Nle-Phe2F-Nva-NMeF-amBCP) (peptide)
39.4,0.0207,cyclo(FLac-R-3Pal-Nle-Phe2F-Nle-NMeF-amBCP) (peptide)
> 50.9,0.313,cyclo(F-NMeA~3Pal-Nle-Phe2F-Nle-NMe3Pal-amBCP) (peptide)

# Second part, the substance before the results:
Substance,"AlphaScreen @18 h, EC50 [1] [µM]",SOS assay EC50 [2] [µM]
cyclo(FLac-NMeA-PyrimAla-cBuA-Phe2F-hL-NMeF-amBCP) (peptide),0.33,0.00647
cyclo(FLac-NMeA-PyrimAla-Nle-Phe2F-Nle-NMe3Pal-SMeamBCP) (peptide),23.4,0.0335
cyclo(FLac-NMeA-3Pal-Nle-Phe2F-Nva-NMe3Pal-amBCP) (peptide),> 50.9,0.154
cyclo(FLac-NMeA~PyrimAla-rF2Cba-Phe2F-Nle-NMe3Pal-amBCP) isomer 2 (peptide),> 50.9,8.19
cyclo(FLac-NMeDabN3-PyrimAla-Nle-Phe2F-Nle-NMe3Pal-amBCP) (peptide),11.6,0.0809
cyclo(TyrOMe-NMeA~3Pal-Nle-Phe2F-Nle-NMe3Pal-amBCP) (peptide),> 50.9,0.757
cyclo(FLac-NMeA-3Pal2F-Nle-Phe2F-Nle-NMe3Pal-amBCP) (peptide),50.2,1.45
cyclo(FLac-NMeNvalmid-4CF33Pal-Nle-Phe2F-Nle-NMeF-amBCP) isomer 1 (peptide),> 50.9,0.188
cyclo(3Pal-NMeA-3Pal-Nle-Phe2F-Nle-NMe3Pal-amBCP) (peptide),> 50.9,3.06
cyclo(FLac-NMeNvalmid-4F3Pal-Nle-Phe2F-Nle-NMeF-amBCP) isomer 1 (peptide),> 50.9,0.101
cyclo(FLac-NMeA-PyrimAla-Nle-2Pal6F-Nle-NMeF-amBCP) (peptide),48.7,0.559
